T1: Spt7 with a C-terminal TAP tag (S. cerevisiae, UniProt P35177 1-1332)
T1 construct: Spt7, SAGA core subunit, S. cerevisiae; expressed at endogenous level; SAGA was captured on IgG Sepharose by the TAP tag and released from the beads by TEV cleavage of the tag; also called Spt7-TAP; not shown: TAP, C-terminal, kept
T1 sequence (looked up): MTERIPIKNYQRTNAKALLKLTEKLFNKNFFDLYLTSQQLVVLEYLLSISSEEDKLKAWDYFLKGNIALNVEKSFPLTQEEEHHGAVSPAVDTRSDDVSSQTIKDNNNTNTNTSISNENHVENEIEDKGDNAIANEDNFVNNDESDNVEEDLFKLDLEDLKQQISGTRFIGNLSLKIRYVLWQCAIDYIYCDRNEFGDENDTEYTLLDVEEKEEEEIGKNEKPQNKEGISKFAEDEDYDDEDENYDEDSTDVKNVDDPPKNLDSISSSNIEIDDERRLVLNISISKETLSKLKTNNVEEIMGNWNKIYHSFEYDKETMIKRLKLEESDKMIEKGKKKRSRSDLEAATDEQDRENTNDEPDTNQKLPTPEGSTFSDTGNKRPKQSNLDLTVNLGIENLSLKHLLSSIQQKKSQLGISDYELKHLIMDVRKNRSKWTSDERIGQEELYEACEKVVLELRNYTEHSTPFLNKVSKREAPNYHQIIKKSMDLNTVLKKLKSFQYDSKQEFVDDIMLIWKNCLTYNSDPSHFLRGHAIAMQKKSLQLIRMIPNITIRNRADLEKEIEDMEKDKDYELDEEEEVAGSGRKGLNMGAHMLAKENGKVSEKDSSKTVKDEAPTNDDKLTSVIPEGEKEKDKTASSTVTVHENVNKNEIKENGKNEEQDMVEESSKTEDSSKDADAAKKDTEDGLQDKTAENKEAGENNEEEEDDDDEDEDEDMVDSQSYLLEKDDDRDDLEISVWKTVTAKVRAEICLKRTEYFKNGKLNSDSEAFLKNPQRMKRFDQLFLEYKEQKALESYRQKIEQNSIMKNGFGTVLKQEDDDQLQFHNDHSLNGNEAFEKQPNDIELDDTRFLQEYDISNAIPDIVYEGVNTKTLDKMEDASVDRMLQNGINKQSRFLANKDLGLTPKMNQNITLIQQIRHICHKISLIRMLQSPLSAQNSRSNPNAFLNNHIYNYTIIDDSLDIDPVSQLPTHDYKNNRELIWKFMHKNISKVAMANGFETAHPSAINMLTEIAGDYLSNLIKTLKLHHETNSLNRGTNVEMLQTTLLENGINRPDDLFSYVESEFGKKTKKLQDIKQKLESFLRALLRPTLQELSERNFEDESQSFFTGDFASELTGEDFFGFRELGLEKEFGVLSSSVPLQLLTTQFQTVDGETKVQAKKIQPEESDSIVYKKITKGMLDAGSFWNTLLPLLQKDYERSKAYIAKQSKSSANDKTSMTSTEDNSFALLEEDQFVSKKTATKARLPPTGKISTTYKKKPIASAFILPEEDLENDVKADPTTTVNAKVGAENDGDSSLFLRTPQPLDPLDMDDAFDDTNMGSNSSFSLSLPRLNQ

B1: Ada2 ΔSWIRM (Δ residues 349–434, chromosomal deletion) (natural protein, S. cerevisiae, UniProt Q02336 1-434, looked up)
chain: MSNKFHCDVCSADCTNRVRVSCAICPEYDLCVPCFSQGSYTGKHRPYHDYRIIETNSYPILCPDWGADEELQLIKGAQTLGLGNWQDIADHIGSRGKEEVKEHYLKYYLESKYYPIPDITQNIHVPQDEFLEQRRHRIESFRERPLEPPRKPMASVPSCHEVQGFMPGRLEFETEFENEAEGPVKDMVFEPDDQPLDIELKFAILDIYNSRLTTRAEKKRLLFENHLMDYRKLQAIDKKRSKEAKELYNRIKPFARVMTAQDFEEFSKDILEELHCRARIQQLQEWRSNGLTTLEAGLKYERDKQARISSFEKFGASTAASLSEGNSRYRSNSAHRSNAEYSQNYSEN
notes: Ada2, S. cerevisiae, without the SWIRM domain (residues 349–434 substituted with KanMX in the gene); source: S. cerevisiae strain YCW20, SWIRM domain deleted by homologous recombination, in lysate
B2: Ada3 (endogenous) (natural protein, S. cerevisiae (endogenous in yeast), UniProt P32494 1-702, looked up)
chain: MPRHGRRGKLPKGEKLPKKEGGDNTPSKLLSSMLKTLDLTFERDIGMLNGKSVRSIPNKKTLLELQSQLDSLNEILGTIARGDQETIEALRKIRDSKNEKQANDEKQETSNADGQHESSTATEETNIIDKGVQSPPKPPPSNEISGTIENDVESIKQAADNMAKEEINEDKDLQVHRDQPREKRPFDSETENRATENENTQRPDNKKQKIDVDKMENDPTVKNPKSEFVVSQTLPRAAAALGLFNEEGLESTGEDFLKKKYNVASYPTNDLKDLLPGELPDMDFSHPKPTNQIQFNTFLAFVENFFKDLSDDNLKFLKMKYIIPDSLQFDKTYDPEVNPFIIPKLGPLYTDVWFKDENDKNSAYKKPSPYSNDASTILPKKSANELDDNALESGSISCGPLLSRLLSAVLKDDNDKSELQSSKIIRDGGLPRTGGEDDIQSFRNNNNDTVDMTLSQENGPSVQTPDNDIDEEASFQAKLAENKGSNGGTTSTLPQQIGWITNGINLDYPTFEERLKRELKYVGIYMNLPKDENNPNSDDPDWVTGREDDEISAELRELQGTLKQVTKKNQKRKAQLIPLVERQLAWQEYSSILEDLDKQIDQAYVKRIRVPKKRKKHHTAASNNVNTGTTSQIAQQKAANSSLKSLLDKRQRWINKIGPLFDKPEIMKRIPNESVFKDMDQEEDEDEADVFAQNTNKDVELN
notes: Ada3, SAGA HAT module subunit, S. cerevisiae; source: endogenous, S. cerevisiae lysate / whole cell extract
B3: Gcn5 (endogenous) (enzyme, S. cerevisiae (endogenous in yeast), UniProt Q03330 1-439, looked up)
chain: MVTKHQIEEDHLDGATTDPEVKRVKLENNVEEIQPEQAETNKQEGTDKENKGKFEKETERIGGSEVVTDVEKGIVKFEFDGVEYTFKERPSVVEENEGKIEFRVVNNDNTKENMMVLTGLKNIFQKQLPKMPKEYIARLVYDRSHLSMAVIRKPLTVVGGITYRPFDKREFAEIVFCAISSTEQVRGYGAHLMNHLKDYVRNTSNIKYFLTYADNYAIGYFKKQGFTKEITLDKSIWMGYIKDYEGGTLMQCSMLPRIRYLDAGKILLLQEAALRRKIRTISKSHIVRPGLEQFKDLNNIKPIDPMTIPGLKEAGWTPEMDALAQRPKRGPHDAAIQNILTELQNHAAAWPFLQPVNKEEVPDYYDFIKEPMDLSTMEIKLESNKYQKMEDFIYDARLVFNNCRMYNGENTSYYKYANRLEKFFNNKVKEIPEYSHLID
notes: Gcn5, histone acetyltransferase subunit of the SAGA HAT module, S. cerevisiae; source: endogenous, S. cerevisiae lysate / whole cell extract
B4: Sgf29 (endogenous) (natural protein, S. cerevisiae (endogenous in yeast), UniProt P25554 1-259, looked up)
chain: MDGYWDVVVSSLQDIYNANEVIPFDDELQTKKLNFLNMSKDQLQLHLNTFQEHMENVNRVHRILDNVRSNLSLMLNQSREEKSEENTEDAEEGEGTRMALSQGKKAVGKVGRSYWTSEYNPNAPILVGSEVAYKPRRGSADGEWIQCEVLKVVADGTRFEVRDPEPDELGNSGKVYKCNRKELLLIPPGFPTKNYPPGTKVLARYPETTTFYPAIVIGTKRDGTCRLRFDGEEEVDKETEVTRRLVLPSPTALANLARK
notes: Sgf29, SAGA HAT module subunit, S. cerevisiae; source: endogenous, S. cerevisiae lysate / whole cell extract

biological target: T1, Spt7 with a C-terminal TAP tag; experiment: affinity purification with mass spectrometry; SAGA purified by Spt7-TAP from yeast with the Ada2 SWIRM domain deleted (YCW20): IgG Sepharose, TEV cleavage, HiTrap Q; LC-MS/MS, total spectrum counts normalized to Spt7; conditions: partners not purified

fold depletion against wild type SAGA [fold] | Binder
~7 | B1
~7 | B2
~7 | B3
~7 | B4
